# Laboratory results: patent US11833164B2, “Methods of treating Fabry disease in patients having a mutation in the GLA gene” (Amicus Therapeutics, Inc., priority 2019, dated 2023)
# Tested on: mutant form of α-Gal A expressed in HEK-293 cells
# Assay: HEK assay (GLP HEK / Migalastat Amenability Assay): α-Gal A activity in lysates of transiently transfected HEK-293 cells incubated with or without 10 μM migalastat
# Type: cell-based, human
# Conditions: for Absolute increase (% WT) / Relative increase: 10 μM migalastat versus baseline; for Baseline α-Gal A activity (% WT): absence of migalastat; for Baseline α-Gal A activity (% WT) / 10 μM migalastat α-Gal A activity (% WT): percentage of baseline wild-type α-Gal A activity; for Baseline α-Gal A activity (% WT) / Baseline α-Gal A activity / 10 μM migalastat α-Gal A activity / 10 μM migalastat α-Gal A activity (% WT): mean ± SEM; for Baseline α-Gal A activity / 10 μM migalastat α-Gal A activity: lysates of HEK-293 cells transiently transfected with the mutant form; for Baseline α-Gal A activity: incubated 5 days in absence of migalastat; for 10 μM migalastat α-Gal A activity: incubated 5 days with 10 μM migalastat; for 10 μM migalastat α-Gal A activity (% WT): with 10 μM migalastat, 5 days
# In short: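 Activity reported as 4-MU released (nmol/mg/hr), mean±SEM, from lysates of transiently transfected HEK-293 cells expressing mutant α-Gal A, cultured with or without 10 μM migalastat.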
Molecule,Absolute increase (% WT),Relative increase,Baseline α-Gal A activity (% WT),Baseline α-Gal A activity [nmol/mg/h],10 μM migalastat α-Gal A activity [nmol/mg/h],10 μM migalastat α-Gal A activity (% WT)
F337Y (protein) MQLRNPELHLGCALALRFLALVSWDIPGARALDNGLARTPTMGWLHWERFMCNLDCQEEPDSCISEKLFMEMAELMVSEGWKDAGYEYLCIDDCWMAPQRDSEGRLQADPQRFPHGIRQLANYVHSKGLKLGIYADVGNKTCAGFPGSFGYYDIDAQTFADWGVDLLKFDGCYCDSLENLADGYKHMSLALNRTGRSIVYSCEWPLYMWPFQKPNYTEIRQYCNHWRNFADIDDSWKSIKSILDWTSFNQERIVDVAGPGGWNDPDMLVIGNFGLSWNQQVTQMALWAIMAAPLFMSNDLRHISPQAKALLQDKDVIAINQDPLGKQGYQLRQGDNYEVWERPLSGLAWAVAMINRQEIGGPRSYTIAVASLGKGVACNPACFITQLLPVKRKLGFYEWTSRLRSHINPTGTVLLQLENTMQMSLKDLL,21.6,1.4,52.3 ± 4.2,21577 ± 1930,30991 ± 2695,73.9 ± 3.2
E338D (protein) MQLRNPELHLGCALALRFLALVSWDIPGARALDNGLARTPTMGWLHWERFMCNLDCQEEPDSCISEKLFMEMAELMVSEGWKDAGYEYLCIDDCWMAPQRDSEGRLQADPQRFPHGIRQLANYVHSKGLKLGIYADVGNKTCAGFPGSFGYYDIDAQTFADWGVDLLKFDGCYCDSLENLADGYKHMSLALNRTGRSIVYSCEWPLYMWPFQKPNYTEIRQYCNHWRNFADIDDSWKSIKSILDWTSFNQERIVDVAGPGGWNDPDMLVIGNFGLSWNQQVTQMALWAIMAAPLFMSNDLRHISPQAKALLQDKDVIAINQDPLGKQGYQLRQGDNFDVWERPLSGLAWAVAMINRQEIGGPRSYTIAVASLGKGVACNPACFITQLLPVKRKLGFYEWTSRLRSHINPTGTVLLQLENTMQMSLKDLL,15.2,1.2,65.7 ± 4.9,25700 ± 1958,31632 ± 1825,80.9 ± 4.6
E338G (protein) MQLRNPELHLGCALALRFLALVSWDIPGARALDNGLARTPTMGWLHWERFMCNLDCQEEPDSCISEKLFMEMAELMVSEGWKDAGYEYLCIDDCWMAPQRDSEGRLQADPQRFPHGIRQLANYVHSKGLKLGIYADVGNKTCAGFPGSFGYYDIDAQTFADWGVDLLKFDGCYCDSLENLADGYKHMSLALNRTGRSIVYSCEWPLYMWPFQKPNYTEIRQYCNHWRNFADIDDSWKSIKSILDWTSFNQERIVDVAGPGGWNDPDMLVIGNFGLSWNQQVTQMALWAIMAAPLFMSNDLRHISPQAKALLQDKDVIAINQDPLGKQGYQLRQGDNFGVWERPLSGLAWAVAMINRQEIGGPRSYTIAVASLGKGVACNPACFITQLLPVKRKLGFYEWTSRLRSHINPTGTVLLQLENTMQMSLKDLL,16.8,2.0,17.1 ± 1.1,6415 ± 391,12588 ± 538,33.9 ± 1.8
E341A (protein) MQLRNPELHLGCALALRFLALVSWDIPGARALDNGLARTPTMGWLHWERFMCNLDCQEEPDSCISEKLFMEMAELMVSEGWKDAGYEYLCIDDCWMAPQRDSEGRLQADPQRFPHGIRQLANYVHSKGLKLGIYADVGNKTCAGFPGSFGYYDIDAQTFADWGVDLLKFDGCYCDSLENLADGYKHMSLALNRTGRSIVYSCEWPLYMWPFQKPNYTEIRQYCNHWRNFADIDDSWKSIKSILDWTSFNQERIVDVAGPGGWNDPDMLVIGNFGLSWNQQVTQMALWAIMAAPLFMSNDLRHISPQAKALLQDKDVIAINQDPLGKQGYQLRQGDNFEVWARPLSGLAWAVAMINRQEIGGPRSYTIAVASLGKGVACNPACFITQLLPVKRKLGFYEWTSRLRSHINPTGTVLLQLENTMQMSLKDLL,11.6,4.1,3.8 ± 0.4,1444 ± 159,5855 ± 690,15.4 ± 1.3
E338A (protein) MQLRNPELHLGCALALRFLALVSWDIPGARALDNGLARTPTMGWLHWERFMCNLDCQEEPDSCISEKLFMEMAELMVSEGWKDAGYEYLCIDDCWMAPQRDSEGRLQADPQRFPHGIRQLANYVHSKGLKLGIYADVGNKTCAGFPGSFGYYDIDAQTFADWGVDLLKFDGCYCDSLENLADGYKHMSLALNRTGRSIVYSCEWPLYMWPFQKPNYTEIRQYCNHWRNFADIDDSWKSIKSILDWTSFNQERIVDVAGPGGWNDPDMLVIGNFGLSWNQQVTQMALWAIMAAPLFMSNDLRHISPQAKALLQDKDVIAINQDPLGKQGYQLRQGDNFAVWERPLSGLAWAVAMINRQEIGGPRSYTIAVASLGKGVACNPACFITQLLPVKRKLGFYEWTSRLRSHINPTGTVLLQLENTMQMSLKDLL,24.8,1.7,39.5 ± 2.3,15626 ± 769,25719 ± 1376,64.3 ± 3
E341Q (protein) MQLRNPELHLGCALALRFLALVSWDIPGARALDNGLARTPTMGWLHWERFMCNLDCQEEPDSCISEKLFMEMAELMVSEGWKDAGYEYLCIDDCWMAPQRDSEGRLQADPQRFPHGIRQLANYVHSKGLKLGIYADVGNKTCAGFPGSFGYYDIDAQTFADWGVDLLKFDGCYCDSLENLADGYKHMSLALNRTGRSIVYSCEWPLYMWPFQKPNYTEIRQYCNHWRNFADIDDSWKSIKSILDWTSFNQERIVDVAGPGGWNDPDMLVIGNFGLSWNQQVTQMALWAIMAAPLFMSNDLRHISPQAKALLQDKDVIAINQDPLGKQGYQLRQGDNFEVWQRPLSGLAWAVAMINRQEIGGPRSYTIAVASLGKGVACNPACFITQLLPVKRKLGFYEWTSRLRSHINPTGTVLLQLENTMQMSLKDLL,19.7,1.4,55.5 ± 3.7,20802 ± 2164,28411 ± 2891,75.2 ± 4.1
V339M (protein) MQLRNPELHLGCALALRFLALVSWDIPGARALDNGLARTPTMGWLHWERFMCNLDCQEEPDSCISEKLFMEMAELMVSEGWKDAGYEYLCIDDCWMAPQRDSEGRLQADPQRFPHGIRQLANYVHSKGLKLGIYADVGNKTCAGFPGSFGYYDIDAQTFADWGVDLLKFDGCYCDSLENLADGYKHMSLALNRTGRSIVYSCEWPLYMWPFQKPNYTEIRQYCNHWRNFADIDDSWKSIKSILDWTSFNQERIVDVAGPGGWNDPDMLVIGNFGLSWNQQVTQMALWAIMAAPLFMSNDLRHISPQAKALLQDKDVIAINQDPLGKQGYQLRQGDNFEMWERPLSGLAWAVAMINRQEIGGPRSYTIAVASLGKGVACNPACFITQLLPVKRKLGFYEWTSRLRSHINPTGTVLLQLENTMQMSLKDLL,18.2,1.3,63.5 ± 2.9,26113 ± 1116,33867 ± 2526,81.7 ± 5
